In test [1] the target is RhD antigen on RhD+ red blood cells (UniProt Q02161). Kind of test: flow cytometry on RhD+ red blood cells. For orientation: In flow cytometry, cells or beads pass a laser one at a time.
Test [2] concerns the target Recombinant soluble human FcRn (human) (UniProt P55899). The test is described as follows: SPR (BIAcore X100), FcRn immobilised, pH 6.0.
Test [3] has as its target FcRn-p3 (fusion protein of β2 microglobulin chain and FcRn α-chain fused to bacteriophage protein p3 and CVDE protein) (UniProt P61769). The test is described as follows: ELISA, purified IgG from YB2/0, vs R593 IgG-WT. In general terms: In an ELISA, binding on a coated surface is turned into a signal by an enzyme label.
Test [4] addresses FcγRIIIaF158 (PX Therapeutics, His-tagged) (human) (UniProt P08637). Kind of test: ELISA, purified IgG from YB2/0, vs R593 IgG-WT.
In test [5] the target is FcγRI (R&D system) (human) (UniProt P12314). Kind of test: ELISA, purified IgG from YB2/0, vs R593 IgG-WT.
The target in test [6] is FcγRIIaR131 (R&D system) (human) (UniProt P12318). The test is described as follows: ELISA, purified IgG from YB2/0, vs R593 IgG-WT.
Test [7] concerns the target FcγRIIb (R&D system) (human) (UniProt P31994). The test is described as follows: ELISA, purified IgG from YB2/0, vs R593 IgG-WT.
Test [8] addresses FcγRIIIaV158 (R&D system) (human) (UniProt P08637). The test is described as follows: ELISA, purified IgG from YB2/0, vs R593 IgG-WT.
Test [9] deals with FcγRIIaH131 (PX Therapeutics, His-tagged) (human) (UniProt P12318). The test is described as follows: ELISA, purified IgG from YB2/0, vs R593 IgG-WT.
Another test has as its target Fcγ receptors. The test is described as follows: cell-based or functional assay.
Test [10] concerns the target Recombinant soluble human FcRn (human) (UniProt P55899). The test is described as follows: SPR, FcRn immobilised, pH 6.0; reference R593. (In general: SPR reads the build-up and loss of mass on a sensor chip optically.)
The target of test [11] is FcRn-p3 (fusion protein of β2 microglobulin chain and FcRn α-chain fused to bacteriophage protein p3 and CVDE protein) (UniProt P61769). Kind of test: ELISA, 293-F supernatant, vs R603 IgG-WT.
The target of test [12] is FcγRI (R&D system) (human) (UniProt P12314). The test is described as follows: ELISA, 293-F supernatant, vs R603 IgG-WT.
In test [13] the target is FcγRIIaR131 (R&D system) (human) (UniProt P12318). Kind of test: ELISA, 293-F supernatant, vs R603 IgG-WT.
The target of test [14] is FcγRIIb (R&D system) (human) (UniProt P31994). Kind of test: ELISA, 293-F supernatant, vs R603 IgG-WT.
Test [15] addresses C1q complement (Calbiochem) (UniProt P02745). The test is described as follows: ELISA, 293-F supernatant, vs R603 IgG-WT.
In test [16] the target is FcγRIIIaV158 (R&D system) (human) (UniProt P08637). Kind of test: ELISA, 293-F supernatant, vs R603 IgG-WT.
Test [17] deals with FcRn-p3 (fusion protein of β2 microglobulin chain and FcRn α-chain fused to bacteriophage protein p3 and CVDE protein) (UniProt P61769). The test is described as follows: ELISA, purified IgG from YB2/0, vs R603 IgG-WT.
For test [18], the target named is FcγRIIIaF158 (PX Therapeutics, His-tagged) (human) (UniProt P08637). Kind of test: ELISA, purified IgG from YB2/0, vs R603 IgG-WT.
The target in test [19] is FcγRI (R&D system) (human) (UniProt P12314). The test is described as follows: ELISA, purified IgG from YB2/0, vs R603 IgG-WT.
Test [20] has as its target FcγRIIaR131 (R&D system) (human) (UniProt P12318). The test is described as follows: ELISA, purified IgG from YB2/0, vs R603 IgG-WT.
Test [21] has as its target FcγRIIb (R&D system) (human) (UniProt P31994). The test is described as follows: ELISA, purified IgG from YB2/0, vs R603 IgG-WT.
Test [22] has as its target FcγRIIIaV158 (R&D system) (human) (UniProt P08637). Kind of test: ELISA, purified IgG from YB2/0, vs R603 IgG-WT.
The target of test [23] is FcγRIIaH131 (PX Therapeutics, His-tagged) (human) (UniProt P12318). Kind of test: ELISA, purified IgG from YB2/0, vs R603 IgG-WT.
Test [24] deals with T1, CD20 antigen on Raji lymphoblastoid B cells (UniProt P11836).
T1 sequence (looked up): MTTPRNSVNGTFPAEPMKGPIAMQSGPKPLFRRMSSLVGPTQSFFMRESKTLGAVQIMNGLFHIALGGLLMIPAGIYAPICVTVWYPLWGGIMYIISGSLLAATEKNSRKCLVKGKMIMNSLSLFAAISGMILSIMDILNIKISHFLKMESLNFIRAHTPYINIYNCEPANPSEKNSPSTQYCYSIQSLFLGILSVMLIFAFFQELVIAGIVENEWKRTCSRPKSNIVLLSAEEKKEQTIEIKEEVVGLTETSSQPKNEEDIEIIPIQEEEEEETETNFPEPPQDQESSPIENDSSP
The test is described as follows: flow cytometry on Raji cells.

For test [25], the target named is Recombinant soluble human FcRn (human) (UniProt P55899). Kind of test: SPR, FcRn immobilised, pH 6.0; reference R603.
For test [26], the target named is C1q complement (Calbiochem) (UniProt P02745). Kind of test: cell-based or functional assay.

For orientation: Kd means the constant that tells how readily two partners part at equilibrium.

FcγRI (R&D system) (human), sequence (P12314 16-288 limits assumed): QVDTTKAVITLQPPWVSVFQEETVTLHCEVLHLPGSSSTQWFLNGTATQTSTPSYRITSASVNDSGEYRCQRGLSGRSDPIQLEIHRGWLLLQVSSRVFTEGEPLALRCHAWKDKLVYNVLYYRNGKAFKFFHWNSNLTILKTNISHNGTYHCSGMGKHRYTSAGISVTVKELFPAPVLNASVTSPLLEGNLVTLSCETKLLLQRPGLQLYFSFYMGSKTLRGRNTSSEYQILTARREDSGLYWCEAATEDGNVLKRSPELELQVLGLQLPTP
FcγRIIaR131 (R&D system) (human), sequence (P12318 36-218 H167R limits assumed): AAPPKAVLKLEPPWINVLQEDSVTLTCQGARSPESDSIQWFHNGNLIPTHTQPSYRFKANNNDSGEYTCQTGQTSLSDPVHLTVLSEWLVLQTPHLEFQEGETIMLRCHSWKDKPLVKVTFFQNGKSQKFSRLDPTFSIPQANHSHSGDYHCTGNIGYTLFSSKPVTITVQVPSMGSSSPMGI
RhD antigen on RhD+ red blood cells, sequence (Q02161 2-417 limits assumed): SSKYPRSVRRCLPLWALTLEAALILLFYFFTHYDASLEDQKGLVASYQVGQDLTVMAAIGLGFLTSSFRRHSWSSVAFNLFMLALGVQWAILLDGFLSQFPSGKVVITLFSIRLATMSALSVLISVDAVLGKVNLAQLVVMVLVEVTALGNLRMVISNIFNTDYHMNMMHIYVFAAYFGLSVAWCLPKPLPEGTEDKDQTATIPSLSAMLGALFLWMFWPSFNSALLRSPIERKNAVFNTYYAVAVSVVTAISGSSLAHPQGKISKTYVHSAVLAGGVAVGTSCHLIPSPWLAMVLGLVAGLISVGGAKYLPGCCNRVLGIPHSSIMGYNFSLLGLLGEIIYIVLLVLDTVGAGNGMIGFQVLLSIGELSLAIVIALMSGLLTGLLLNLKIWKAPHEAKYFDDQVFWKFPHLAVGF
FcγRIIaH131 (PX Therapeutics, His-tagged) (human), sequence (P12318 34-217 limits assumed): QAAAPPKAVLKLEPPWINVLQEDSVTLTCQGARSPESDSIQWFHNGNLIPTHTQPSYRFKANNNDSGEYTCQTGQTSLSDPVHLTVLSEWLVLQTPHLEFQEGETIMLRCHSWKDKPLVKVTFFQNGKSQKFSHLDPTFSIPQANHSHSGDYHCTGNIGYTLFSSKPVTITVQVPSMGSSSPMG
FcRn-p3 (fusion protein of β2 microglobulin chain and FcRn α-chain fused to bacteriophage protein p3 and CVDE protein), sequence (P61769 21-119, chain 1 of 2): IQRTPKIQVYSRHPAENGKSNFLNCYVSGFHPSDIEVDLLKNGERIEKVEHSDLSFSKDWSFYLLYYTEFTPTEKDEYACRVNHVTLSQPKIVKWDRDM
FcRn-p3 (fusion protein of β2 microglobulin chain and FcRn α-chain fused to bacteriophage protein p3 and CVDE protein), sequence (P55899 24-290, chain 2 of 2, further chain): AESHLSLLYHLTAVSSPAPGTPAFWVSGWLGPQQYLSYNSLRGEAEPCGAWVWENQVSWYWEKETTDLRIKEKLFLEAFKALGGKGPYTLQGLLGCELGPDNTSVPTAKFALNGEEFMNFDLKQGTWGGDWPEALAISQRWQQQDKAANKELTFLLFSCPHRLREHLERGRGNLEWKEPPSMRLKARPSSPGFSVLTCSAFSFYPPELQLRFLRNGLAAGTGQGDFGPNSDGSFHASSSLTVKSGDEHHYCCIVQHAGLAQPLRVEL
C1q complement (Calbiochem), sequence (P02745 23-245, chain 1 of 3): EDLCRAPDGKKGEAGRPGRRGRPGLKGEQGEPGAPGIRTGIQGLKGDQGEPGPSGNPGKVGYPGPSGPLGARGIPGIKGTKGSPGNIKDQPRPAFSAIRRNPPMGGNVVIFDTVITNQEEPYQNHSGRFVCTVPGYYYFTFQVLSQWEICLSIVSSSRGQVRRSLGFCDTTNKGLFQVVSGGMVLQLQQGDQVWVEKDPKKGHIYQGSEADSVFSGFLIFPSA
C1q complement (Calbiochem), sequence (P02746 28-253, chain 2 of 3, further chain): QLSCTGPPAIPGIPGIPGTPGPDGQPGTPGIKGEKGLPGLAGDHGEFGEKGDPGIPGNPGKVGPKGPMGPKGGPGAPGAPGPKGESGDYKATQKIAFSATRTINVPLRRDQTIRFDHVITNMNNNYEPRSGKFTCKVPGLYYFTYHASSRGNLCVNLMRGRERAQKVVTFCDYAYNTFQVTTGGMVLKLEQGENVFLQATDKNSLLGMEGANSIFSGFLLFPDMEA
C1q complement (Calbiochem), sequence (P02747 29-245, chain 3 of 3, further chain): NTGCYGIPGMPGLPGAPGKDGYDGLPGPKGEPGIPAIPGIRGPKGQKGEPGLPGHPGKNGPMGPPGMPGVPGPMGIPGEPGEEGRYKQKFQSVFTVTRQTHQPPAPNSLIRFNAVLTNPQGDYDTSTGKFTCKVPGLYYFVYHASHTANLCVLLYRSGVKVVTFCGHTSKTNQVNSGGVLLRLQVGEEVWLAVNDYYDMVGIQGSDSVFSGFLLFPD
FcγRIIb (R&D system) (human), sequence (P31994 46-217 limits assumed): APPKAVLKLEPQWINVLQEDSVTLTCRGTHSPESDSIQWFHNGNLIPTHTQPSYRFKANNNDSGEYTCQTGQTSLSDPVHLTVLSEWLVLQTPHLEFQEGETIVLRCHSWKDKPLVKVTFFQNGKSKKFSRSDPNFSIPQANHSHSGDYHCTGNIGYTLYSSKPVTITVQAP
FcγRIIIaV158 (R&D system) (human), sequence (P08637 17-208 F176V limits assumed): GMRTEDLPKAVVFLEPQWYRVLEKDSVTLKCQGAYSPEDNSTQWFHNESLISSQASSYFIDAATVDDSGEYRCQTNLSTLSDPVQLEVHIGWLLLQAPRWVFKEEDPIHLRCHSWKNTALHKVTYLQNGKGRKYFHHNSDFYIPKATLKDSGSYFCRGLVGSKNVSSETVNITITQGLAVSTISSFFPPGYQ
FcγRIIIaF158 (PX Therapeutics, His-tagged) (human), sequence (P08637 17-208 limits assumed): as the sequence (P08637 17-208 F176V limits assumed) above, with V160F counted along it
Recombinant soluble human FcRn (human), sequence (P55899 24-290 limits assumed, chain 1 of 2): as the sequence (P55899 24-290, chain 2 of 2, further chain) above
Recombinant soluble human FcRn (human), sequence (P61769 21-119 limits assumed, chain 2 of 2, further chain): as the sequence (P61769 21-119, chain 1 of 2) above

As to “R593 anti-RhD+ IgG1 variant 256N/378V/383N/434Y (antibody)”, the Ag binding MFI (Arbitrary Unit) in [1] was 49.6. Moreover, the dissociation constant (Kd) in test [2] came to 42 nM. In addition, the Ratio/IgG-WT in test [3] amounted to 7.49; in test [4], 0.92; in test [5], 2.19; in test [6], 1.08; in test [7] it was 1.55; in [8], 0.98. Moreover, the Ratio/IgG-WT in test [9] stood at 1.01. The substance also had an ADCC EC50 (ng/ml), lysis of RhD+ red cells with Fcγ receptors of 11.1 ng/mL. The same substance came in with an ADCC Max. Lysis (%) with Fcγ receptors of 93%. Besides, in test [10], the Ratio WT/IgG (KD) came out at 4.52.
“R593 anti-RhD+ IgG1 variant 259I/315D/434Y (antibody)”: the Ag binding MFI (Arbitrary Unit) in [1] was 47.2. In addition, the dissociation constant (Kd) in test [2] came out at 20.4 nM. Moreover, the Ratio/IgG-WT in test [3] came to 7.93; in test [4], 0.94; in [5], 1.08; in test [6], 1.05; in [7], 1.41; in test [8], 0.95. Moreover, the Ratio/IgG-WT in test [9] was found to be 0.94. In addition, in the test with Fcγ receptors, the ADCC EC50 (ng/ml), lysis of RhD+ red cells amounted to 14.2 ng/mL. Also, the ADCC Max. Lysis (%) in the test with Fcγ receptors came to 89%. The Ratio WT/IgG (KD) in test [10] is 9.31.
As for “R603 anti-CD20 IgG1 variant 294Del/397M (antibody)”, the Ratio/IgG-WT in test [11] was 0.84; in test [12] it was 0.68; in [13] it was 0.03; in [14], 0.04; in [15], 0.25.
Take “R603 anti-CD20 IgG1 variant 294Del/315D (antibody)”: the Ratio/IgG-WT in test [11] stood at 1.16; in test [12], 0.4; in [14] it was 0.21; in test [15], 0.29.
Regarding “R603 anti-CD20 IgG1 variant 256N/378V/383N/434Y (antibody)”, the Ratio/IgG-WT in [11] worked out at 4.63; in [12], 0.93; in test [13], 2.59; in test [14], 4.77; in test [15], 3.65; in test [16], 2.09. In addition, the Ratio/IgG-WT was 8.51 in test [17]; 1.25 in test [18]; 2.19 in test [19]; 1.4 in [20]; 1.83 in [21]; 1.22 in test [22]. Also, the Ratio/IgG-WT in [23] amounted to 0.93.
With “R603 anti-CD20 IgG1 variant 230S/294Del/315D/428L/434Y (antibody)”, the Ratio/IgG-WT in [11] was 3.86; in test [12], 0.25; in [13], 0.01; in [14], 0.02; in test [15] it was 0.35.
Regarding “R603 anti-CD20 IgG1 variant 294Del/434S (antibody)”, the Ratio/IgG-WT in test [11] stood at 2.64; in [12], 0.49; in test [13], 0.02; in [14], 0.05; in [15], 0.25.
Taken in the same sequence, the figures for “R603 anti-CD20 IgG1 variant 294Del/302A (antibody)” were 0.66, 0.06, 0.02, 0.06 and 0.21.
“R603 anti-CD20 IgG1 variant 294Del/378V (antibody)”: the Ratio/IgG-WT came to 1.46 in test [11], 0.33 in test [12], 0.06 in test [13] and 0.11 in test [14].
As for “R603 anti-CD20 IgG1 variant 294Del/307A (antibody)”, the Ratio/IgG-WT in test [11] was determined as 1.94; in test [12], 0.35; in test [13] it was 0.01; in test [14] it was 0.2; in test [15] it was 0.46.
Regarding “R603 anti-CD20 IgG1 variant 294Del (antibody)”, the Ag binding MFI (Arbitrary Unit) in [24] stood at 126. Further, the Kd in [2] is 190 nM.
In test [1], “R593 anti-RhD+ IgG1 variant 294Del (antibody)” returned an Ag binding MFI (Arbitrary Unit) of 52.6. In [2], the dissociation constant (Kd) was 204 nM. In the test with Fcγ receptors, this substance showed an ADCC EC50 (ng/ml), lysis of RhD+ red cells of 75.9 ng/mL and an ADCC Max. Lysis (%) of 5%.
In the case of “R603 anti-CD20 IgG1 variant 259I/315D/434Y (antibody)”, the Ratio WT/IgG (KD) in test [25] amounted to 3.68. The Ratio/IgG-WT in test [11] was 4.32; in test [12], 0.82; in test [13], 1.23; in test [14] it was 1.07; in test [15], 1.26; in test [16], 1.08. Besides, the Ratio/IgG-WT in test [17] was found to be 6.93; in test [18], 1.11; in [19], 1.12; in test [20], 1.11; in test [21], 1.54; in test [22], 1.11. Moreover, the Ratio/IgG-WT in test [23] came out at 0.99. This substance also registered an Ag binding MFI (Arbitrary Unit) in test [24] of 137. Also, in test [2], the Kd was 26.9 nM. The CDC EC50 in [26] worked out at 0.41 µg/mL.

The record behind these values is patent US20140378663A1.
